Measured values reported in US20090196913A1, “Anti-Alpha-V Immunoliposome Composition, Methods, and Uses” (priority 2007, published 2009).

Tests used:
A375.S2 cells = test: Binding and internalization at 37° C., confocal microscopy; assay type: cell-based, human; conditions: 37° C. for 10 min, washed, 1 hour at 37° C.
Protocol: These targeted-liposomes were used in the cytotoxicity assay using the various cells lines, as described below. A375.S2 cells were harvested by scraping and then resuspended to obtain individualized cells and rejuvenated for 1 hour, at 37° C. About 1 million cells of each tumor type were counted and distributed into individual centrifugation tubes. The tubes were spun to obtain a cell pellet. […] Cells were treated with the liposome formulations containing either a doxorubicin payload or a fluorescent marker (Dextran Alexa Fluor 488). Treatment was terminated by adding 1 mL of washing media (serum free), vortexing briefly, and centrifuging to recover a cell pellet The cells in the pellet were resuspend in washing media, vigorously shaken for 10 minutes at 37° C. and then centrifuged again (440 rpm). The cell pellet was left in 100 μL of media, an aliquot of 8 μL was taken and placed on a glass slide for observation under a confocal microscope.

integrin αvβ3 [1] = biological target: T1, integrin αvβ3 (Homo sapiens, UniProt P06756); test: scFv binding ELISA on integrin-coated plates; conditions: detected by HRP anti-His Ab and anti-CNTO95 Ab (c508)
T1 construct: purchased Chemicon International Inc
T1 sequence (P06756 31-889 limits assumed): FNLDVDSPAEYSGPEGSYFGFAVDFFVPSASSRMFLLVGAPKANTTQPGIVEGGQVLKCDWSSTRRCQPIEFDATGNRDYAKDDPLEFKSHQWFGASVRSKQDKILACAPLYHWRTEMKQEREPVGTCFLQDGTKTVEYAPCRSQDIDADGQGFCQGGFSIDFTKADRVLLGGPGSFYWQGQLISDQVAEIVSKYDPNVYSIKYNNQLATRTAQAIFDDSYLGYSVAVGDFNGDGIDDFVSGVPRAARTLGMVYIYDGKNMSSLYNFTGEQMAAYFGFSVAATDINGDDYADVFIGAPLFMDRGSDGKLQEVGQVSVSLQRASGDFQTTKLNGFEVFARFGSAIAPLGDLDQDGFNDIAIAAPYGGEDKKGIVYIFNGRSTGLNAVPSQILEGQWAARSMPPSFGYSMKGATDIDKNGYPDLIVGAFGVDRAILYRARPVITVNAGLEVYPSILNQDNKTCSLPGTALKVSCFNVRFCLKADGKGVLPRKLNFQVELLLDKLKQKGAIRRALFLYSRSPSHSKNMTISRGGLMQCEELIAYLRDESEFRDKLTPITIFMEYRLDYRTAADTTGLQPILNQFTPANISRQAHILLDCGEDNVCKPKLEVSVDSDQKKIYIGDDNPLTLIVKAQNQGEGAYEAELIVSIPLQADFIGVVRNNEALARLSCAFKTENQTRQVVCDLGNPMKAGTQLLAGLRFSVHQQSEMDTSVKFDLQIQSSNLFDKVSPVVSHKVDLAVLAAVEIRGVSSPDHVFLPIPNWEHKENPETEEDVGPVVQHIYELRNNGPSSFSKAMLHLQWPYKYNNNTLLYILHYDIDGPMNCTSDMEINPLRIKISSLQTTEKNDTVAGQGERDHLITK
T1 sequence (P06756 891-1048 partner limits assumed): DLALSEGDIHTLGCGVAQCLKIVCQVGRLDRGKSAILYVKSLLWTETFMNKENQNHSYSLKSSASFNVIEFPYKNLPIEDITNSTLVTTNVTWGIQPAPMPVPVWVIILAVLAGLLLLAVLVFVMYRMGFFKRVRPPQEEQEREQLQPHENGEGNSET
T1 sequence (P05106 27-788 partner): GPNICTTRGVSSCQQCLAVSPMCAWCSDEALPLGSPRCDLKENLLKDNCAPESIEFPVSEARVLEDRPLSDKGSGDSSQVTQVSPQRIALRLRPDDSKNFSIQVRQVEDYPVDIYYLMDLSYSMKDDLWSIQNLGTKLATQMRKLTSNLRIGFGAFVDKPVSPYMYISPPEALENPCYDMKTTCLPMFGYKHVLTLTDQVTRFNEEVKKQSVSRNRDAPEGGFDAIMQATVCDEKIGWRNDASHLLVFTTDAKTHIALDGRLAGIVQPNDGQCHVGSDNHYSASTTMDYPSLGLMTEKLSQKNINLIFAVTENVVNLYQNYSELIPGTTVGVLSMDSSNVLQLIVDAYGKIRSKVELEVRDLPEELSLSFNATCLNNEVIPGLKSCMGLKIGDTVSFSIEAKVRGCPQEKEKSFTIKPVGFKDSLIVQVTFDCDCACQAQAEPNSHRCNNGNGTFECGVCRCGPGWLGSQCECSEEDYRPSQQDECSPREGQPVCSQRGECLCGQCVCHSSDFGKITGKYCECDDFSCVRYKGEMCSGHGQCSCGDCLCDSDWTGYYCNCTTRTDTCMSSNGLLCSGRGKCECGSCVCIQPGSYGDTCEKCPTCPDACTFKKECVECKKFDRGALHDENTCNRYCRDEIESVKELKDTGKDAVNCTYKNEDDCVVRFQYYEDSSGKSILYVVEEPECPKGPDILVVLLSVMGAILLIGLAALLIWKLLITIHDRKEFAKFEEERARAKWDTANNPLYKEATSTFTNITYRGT
Protocol: (§1) The binding affinity of scFv CNTO95 was measured using a validated sandwich enzyme-linked immunoassay. The 96-well plates (Coasta, high binding plate) were coated with 100 ul of integrin αvβ3 or αvβ5 (Chemicon International Inc ) at 1 ug/ml in coating buffer (0.75 g Na2CO3 and 1.45 g NaHCO3 in 500 ml H2O) and incubated overnight at 4° C. The plates were blocked with Superblock blocking buffer in PBS (Pierce) at room temperature for 1 hr. Wells were washed with PBS+0.05% Tween 20 between each step. Controls and scFv purified protein were diluted serially at 3-fold with TBST, and added to the coated wells in duplicate, and incubated at 37° C. for 2 hrs. Two methods were used to detect the binding. For anti-his ELISA 1:1000 diluted HRP mouse anti-his antibody were added to each well and incubated for 1 hr. For the anti-CNTO95 anti-idiotype ELISA, an aliquot of 1:1000 diluted 1 mg/ml C508 antibody was added to each well and incubated for 1 hr. […]
(§2) The Elisa was developed using OPD tablet (Sigma) in development buffer for 15 min at room temperature. […] The binding affinity was measured in a plate reader at 490 nm. In the assay, purified CNTO95 scFv protein from E. coli bound both αvβ3 and αvβ5 integrin proteins (FIG. 14) as shown for integrin-coated ELISA plates and was detected by HRP anti-His Ab as well as the anti-CNTO95 Ab (c508).

integrin αvβ5 [2] = biological target: T2, integrin αvβ5 (Homo sapiens, UniProt P06756); test: scFv binding ELISA on integrin-coated plates; conditions: detected by HRP anti-His Ab and anti-CNTO95 Ab (c508)
T2 construct: purchased Chemicon International Inc
T2 sequence (P06756 31-889 limits assumed): as the sequence (P06756 31-889 limits assumed) above
T2 sequence (P06756 891-1048 partner limits assumed): as the sequence (P06756 891-1048 partner limits assumed) above
T2 sequence (P18084 24-799 partner): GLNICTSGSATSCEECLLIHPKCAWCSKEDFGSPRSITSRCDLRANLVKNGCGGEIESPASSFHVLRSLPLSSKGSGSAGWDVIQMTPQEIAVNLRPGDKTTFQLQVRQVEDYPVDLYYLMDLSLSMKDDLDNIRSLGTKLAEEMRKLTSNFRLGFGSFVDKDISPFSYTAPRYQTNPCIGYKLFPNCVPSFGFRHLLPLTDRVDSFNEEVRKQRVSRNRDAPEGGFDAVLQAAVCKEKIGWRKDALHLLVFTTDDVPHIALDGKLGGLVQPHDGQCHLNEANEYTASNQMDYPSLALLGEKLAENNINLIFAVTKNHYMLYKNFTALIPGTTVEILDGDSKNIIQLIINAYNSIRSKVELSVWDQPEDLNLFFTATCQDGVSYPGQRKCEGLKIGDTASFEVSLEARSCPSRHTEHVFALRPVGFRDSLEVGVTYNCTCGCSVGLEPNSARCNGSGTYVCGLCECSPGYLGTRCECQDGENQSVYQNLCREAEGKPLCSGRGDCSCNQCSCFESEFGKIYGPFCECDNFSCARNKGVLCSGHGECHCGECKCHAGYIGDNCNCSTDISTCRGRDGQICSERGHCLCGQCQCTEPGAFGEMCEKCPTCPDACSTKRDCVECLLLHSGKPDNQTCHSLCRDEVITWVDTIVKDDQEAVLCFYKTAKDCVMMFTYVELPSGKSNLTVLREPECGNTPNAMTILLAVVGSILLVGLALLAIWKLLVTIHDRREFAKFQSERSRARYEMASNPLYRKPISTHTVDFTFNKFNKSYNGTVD
Protocol: as §1, §2

integrin αvβ3 [3] = biological target: T1, integrin αvβ3; test: scFv vs Mab integrin competition assay; assay type: binding; conditions: αvβ3 coated plate, CNTO95 mAb at 0.8 nM
Protocol: (§3) To compare the binding affinity of scFv CNTO95 and CNTO 95 mAb, the 96-well plates were coated with 100 ul of integrin αvβ3 or αvβ5 as described above. CNTO95 mAb was added to each well at 0.8 nM for αvβ3 coated plate or 0.2 nM for αvβ5 coated plate. Controls and scFv purified protein diluted serially at 3-fold with TBST were added to the coated wells in duplicate. The mix of CNTO95 mAb and sFv were incubated at 37° C. for 2 hrs. The detection antibody was 1:10K dilution of peroxidase conjugated affinipure F(ab′)2 fragment Goat anti-human IgG, Fc fragment specific (minimal cross reaction to Bovine, Horse and mouse serum protein) (Jackson Immunoresearch ). The antibody was incubated on the plate 1 hr at 37° C. and the color was developed and read as above. CNTO95 mAb binding to both alpha-V-integrins was competed with the […] (FIGS. 15A and B).

integrin αvβ5 [4] = biological target: T2, integrin αvβ5; test: scFv vs Mab integrin competition assay; assay type: binding; conditions: αvβ5 coated plate, CNTO95 mAb at 0.2 nM
Protocol: as §3

| Molecule | binding and internalization (confocal microscopy) (A375.S2 cells) | binding to integrin-coated ELISA plates (integrin αvβ3 [1]) | binding to integrin-coated ELISA plates (integrin αvβ5 [2]) | competition with CNTO95 mAb for integrin binding (integrin αvβ3 [3]) | competition with CNTO95 mAb for integrin binding (integrin αvβ5 [4]) |
| --- | --- | --- | --- | --- | --- |
| COc1cccc2c1C(=O)c1c(O)c3c(c(O)c1C2=O)C[C@@](O)(C(=O)CO)C[C@@H]3O[C@H]1C[C@H](N)[C@H](O)[C@H](C)O1 [free dox, doxorubicin] | drug internalization is evident |  |  |  |  |
| CNTO95 scFv: single chain variable fragment of CNTO 95, VH-(Gly4Ser)3-VL, R18L, 6×His tag and Gly4Cys (SEQ ID NO: 4) |  | bound | bound | effectively competes | effectively competes |
